The results in this text go back to PMC8395313, “Membrane Association Modes of Natural Anticancer Peptides: Mechanistic Details on Helicity, Orientation, and Surface Coverage” (International Journal of Molecular Sciences, 2021).

Ends that are not written are not given here.

The data set concerns the molecule itself. Put plainly: dynamic light scattering; free peptide without lipid; DLS at 20 °C in CD buffer (10 mM Na-phosphate, 100 mM Na2SO4, pH 7.0); the methods give 20 or 40 µM peptide for the DLS samples.

B1: Temporin-La (peptide)
peptide: LLRHVVKILEKYL-NH2
notes: 13 residues; MW = 1622.6 as printed in the methods; also called Tempo-La; TEMPO-LA; source: synthetic peptide (NovoPro Bioscience Inc., Shanghai; purity >= 95%)
In the case of B1, the binding result was “binds”.
